This note sets out measurements from PMC8294582.

The assay deals with RNA polymerase II, P24928. Nature of the assay: coimmunoprecipitation (anti-FLAG beads, Western blot quantification). Conditions: chain shown with the change; tSETD2-FLAG on anti-Flag beads incubated with HEK293 cell lysate; parent: est. 82; read off a plot. For orientation: A western blot detects proteins with antibodies after separation by electrophoresis.

Numbering of substitutions follows the chain as printed. In names and notes the source's numbering stands.

B1: truncated form of human WT SETD2, FLAG-tagged (tSETD2-FLAG, aa1418–2564), Q9BYW2 H2514A (protein)
chain: DGELQDRKKVRVEVEQGETSVPPGSALVGPSCVMDDFRDPQRWKECAKQGKMPCYFDLIEENVYLTERKKNKSHRDIKRMQCECTPLSKDERAQGEIACGEDCLNRLLMIECSSRCPNGDYCSNRRFQRKQHADVEVILTEKKGWGLRAAKDLPSNTFVLEYCGEVLDHKEFKARVKEYARNKNIHYYFMALKNDEIIDATQKGNCSRFMNHSCEPNCETQKWTVNGQLRVGFFTTKLVPSGSELTFDYQFQRYGKEAQKCFCGSANCRGYLGGENRVSIRAAGGKMKKERSRKKDSVDGELEALMENGEGLSDKNQVLSLSRLMVRIETLEQKLTCLELIQNTHSQSCLKSFLERHGLSLLWIWMAELGDGRESNQKLQEEIIKTLEHLPIPTKNMLEESKVLPIIQRWSQTKTAVPPLSEGDGYSSENTSRAHTPLNTPDPSTKLSTEADTDTPKKLMFRRLKIISENSMDSAISDATSELEGKDGKEDLDQLENVPVEEEEELQSQQLLPQQLPECKVDSETNIEASKLPTSEPEADAEIEPKESNGTKLEEPINEETPSQDEEEGVSDVESERSQEQPDKTVDISDLATKLLDSWKDLKEVYRIPKKSQTEKENTTTERGRDAVGFRDQTPAPKTPNRSRERDPDKQTQNKEKRKRRSSLSPPSSAYERGTKRPDDRYDTPTSKKKVRIKDRNKLSTEERRKLFEQEVAQREAQKQQQQMQNLGMTSPLPYDSLGYNAPHHPFAGYPPGYPMQAYVDPSNPNAGKVLLPTPSMDPVCSPAPYDHAQPLVGHSTEPLSAPPPVPVVPHVAAPVEVSSSQYVAQSDGVVHQDSSVAVLPVPAPGPVQGQNYSVWDSNQQSVSVQQQYSPAQSQATIYYQGQTCPTVYGVTSPYSQTTPPIVQSYAQPSLQYIQGQQIFTAHPQGVVVQPAAAVTTIVAPGQPQPLQPSEMVVTNNLLDLPPPSPPKPKTIVLPPNWKTARDPEGKIYYYHVITRQTQWDPPTWESPGDDASLEHEAEMDLGTPTYDENPMKASKKPKTAEADTSSELAKKSKEVFRKEMSQFIVQCLNPYRKPDCKVGRITTTEDFKHLARKLTAGVMNKELKYCKNPEDLECNENVKHKTKEYIKKYMQKFGAVYKPKEDTELE
For B1, the response (% of input bound) came to 17.

B2: truncated form of human WT SETD2, FLAG-tagged (tSETD2-FLAG, aa1418–2564), Q9BYW2 V2483A (protein)
chain: B1 chain with V1066A, A1097H
Turning to B2, the response (% of input bound) was determined as 76.

B3: truncated form of human WT SETD2, FLAG-tagged (tSETD2-FLAG, aa1418–2564), Q9BYW2 R2510H (protein)
chain: B1 chain with R1093H, A1097H
Take B3: the response (% of input bound) was 84.

B4: truncated form of human WT SETD2, FLAG-tagged (tSETD2-FLAG, aa1418–2564), Q9BYW2 F2505A (protein)
chain: B1 chain with F1088A, A1097H
As to B4, the response (% of input bound) was 12.
